Measurements taken from article PMC2854606.

Biological target: T1, endogenous MGR (Mus musculus (C2C12 myoblasts)) (UniProt D2EAC2)
T1 sequence: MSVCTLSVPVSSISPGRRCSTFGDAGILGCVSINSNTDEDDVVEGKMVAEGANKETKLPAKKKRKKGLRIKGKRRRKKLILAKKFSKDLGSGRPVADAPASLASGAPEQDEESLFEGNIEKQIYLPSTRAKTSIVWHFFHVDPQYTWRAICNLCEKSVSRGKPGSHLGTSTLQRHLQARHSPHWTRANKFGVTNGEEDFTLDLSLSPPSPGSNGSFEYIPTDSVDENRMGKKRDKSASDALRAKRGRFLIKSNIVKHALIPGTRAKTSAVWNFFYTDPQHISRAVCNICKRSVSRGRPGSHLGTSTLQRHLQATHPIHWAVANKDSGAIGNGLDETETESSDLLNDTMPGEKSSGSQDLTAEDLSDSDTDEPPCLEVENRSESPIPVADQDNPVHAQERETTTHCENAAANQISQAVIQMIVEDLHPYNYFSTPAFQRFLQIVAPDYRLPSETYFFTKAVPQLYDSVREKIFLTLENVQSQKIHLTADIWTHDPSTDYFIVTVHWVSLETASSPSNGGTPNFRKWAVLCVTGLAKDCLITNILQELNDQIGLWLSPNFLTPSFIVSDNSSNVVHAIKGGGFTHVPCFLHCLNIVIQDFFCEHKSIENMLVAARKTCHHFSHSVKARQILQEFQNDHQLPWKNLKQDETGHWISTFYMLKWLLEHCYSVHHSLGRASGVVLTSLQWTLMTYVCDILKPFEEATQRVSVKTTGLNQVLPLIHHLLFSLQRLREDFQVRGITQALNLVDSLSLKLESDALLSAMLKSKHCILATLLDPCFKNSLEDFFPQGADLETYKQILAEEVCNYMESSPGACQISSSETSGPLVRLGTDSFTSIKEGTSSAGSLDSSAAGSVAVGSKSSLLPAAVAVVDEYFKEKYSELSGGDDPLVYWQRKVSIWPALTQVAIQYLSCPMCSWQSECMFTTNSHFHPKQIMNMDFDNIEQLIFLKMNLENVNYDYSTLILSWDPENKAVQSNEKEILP
Assay: pull-down, SILAC MS

Q: Which binding signal (SILAC ratio q/Q) does the source give for “TTCAAAACTGCAGGATCCTTCGCCTAGGCTCGCAGCGCGGGAGCGA / AATCGCTCCCGCGCTGCGAGCCTAGGCGAAGGATCCTGCAGTTTTG [porcine IGF2 q (pulldown)]” here?
A: 5.5
